Three molecules from patent CN115785267A (SANYOU BIO INC, dated 2023) can be followed below.

In test [1] the target is T1, 人IL-23-His (human, UniProt Q9NPF7 20-189; P29460 23-328, limits assumed).
T1 sequence (looked up) 1: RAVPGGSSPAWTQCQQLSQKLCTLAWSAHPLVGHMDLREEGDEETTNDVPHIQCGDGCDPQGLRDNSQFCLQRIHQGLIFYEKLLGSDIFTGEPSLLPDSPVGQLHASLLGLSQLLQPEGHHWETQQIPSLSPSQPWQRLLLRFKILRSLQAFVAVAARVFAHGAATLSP
T1 sequence (looked up) 2: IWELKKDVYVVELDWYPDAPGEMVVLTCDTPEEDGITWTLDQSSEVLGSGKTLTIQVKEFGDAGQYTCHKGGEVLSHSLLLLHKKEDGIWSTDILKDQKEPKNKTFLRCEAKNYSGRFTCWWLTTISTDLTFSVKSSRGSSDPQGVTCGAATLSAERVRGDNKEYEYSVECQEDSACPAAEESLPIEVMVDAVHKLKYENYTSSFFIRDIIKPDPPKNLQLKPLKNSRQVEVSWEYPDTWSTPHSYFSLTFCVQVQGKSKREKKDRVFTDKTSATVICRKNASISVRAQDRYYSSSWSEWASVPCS
The test can be described thus: cell-based or functional assay.

For test [2], the target named is T1, 人IL-23-His. Briefly: Biacore (SPR), human IL-23-His.

B1: 改造后抗体S5-5HWTL (antibody, V domains shown)
VH: QVQLVQSGAEVKKPGSSVKVSCKASGGTFSSYAISWVRQAPGQGLEWMGGIIPIFGTANYAQKFQGRVTITADESTSTAYMELSSLRSEDTAVYYCARDRFGLYYYYGMDVWGQGTMVTVSS
VL: QSVLTQPPSVSGAPGQRVTISCTGGSSSIGAGYDVQWYRQLPGIAPKLLIYRSTNRPSGVPARFSGSKSGASASLAITGLQAEDEADYYCVSYDSSLGGYVFGTGTKVTVL
As for B1, the “抑制IL-23激活小鼠脾细胞分泌IL-17: 剂量浓度 at which the inhibition is better than that of Guselkumab” value with 人IL-23-His [1] stood at 0.063 µg/mL. In the test with 人IL-23-His [2], this molecule showed a Kd of 62.5 pM, a dissociation rate constant (koff) of 6.97e-06 s⁻¹ and a kon of 111000 M⁻¹ s⁻¹.

B2: 改造后抗体S5-4H6L (antibody, V domains shown)
VH: QVQLVQSGAEVKKPGSSVKVSCKASGGTFSSYAISWVRQAPGQGLEWMGGIIPIFGTANYAQKFQGRVTITADESTSTAYMELSSLRSEDTAVYYCARDRFSLYYYYGMDVWGQGTMVTVSS
VL: QSVLTQPPSVSGAPGQRVTISCTGGQSSIGAGYDVQWYRQLPGIAPKLLIYRSTNRPSGVPARFSGSKSGASASLAITGLQAEDEADYYCVSYDASLGGYVFGTGTKVTVL
For the molecule B2, the “抑制IL-23激活小鼠脾细胞分泌IL-17: 剂量浓度 at which the inhibition is better than that of Guselkumab” value with 人IL-23-His [1] turned out to be 0.056 µg/mL. Further, in the test with 人IL-23-His [2], the equilibrium dissociation constant (Kd) was determined as 58.9 pM, the koff came to 6.03e-06 s⁻¹ and the kon is 102000 M⁻¹ s⁻¹.

B3: 改造后抗体S5-15HWTL (antibody, V domains shown)
VH: KVQLVQSGAEVKKPGSSVKVSCKASGGTFSSYAISWVRQAPGQGLEWMGGFIPIFGTANYAQKFQGRVTITADESTSTAYMELSSLRSEDTAVYYCARDRTSLYYYYGMDVWGQGTMVTVSS
VL: QSVLTQPPSVSGAPGQRVTISCTGGSSSIGAGYDVQWYRQLPGIAPKLLIYRSTNRPSGVPARFSGSKSGASASLAITGLQAEDEADYYCVSYDSSLGGYVFGTGTKVTVL
Take B3: the “抑制IL-23激活小鼠脾细胞分泌IL-17: 剂量浓度 at which the inhibition is better than that of Guselkumab” value with 人IL-23-His [1] was 0.167 µg/mL. In the test with 人IL-23-His [2], this molecule registered a Kd of 108 pM, a koff of 1.18e-05 s⁻¹ and a kon of 109000 M⁻¹ s⁻¹.

The Kd is the equilibrium constant for the complex coming apart. Lower therefore signals tighter binding. For orientation: koff means a measure of how fast the partners let go of each other. The kon is a measure of how fast the partners come together. Read a low kon as slow association.
